The supplement of paper PMC10126150
± gives the standard deviation of the averaged measurements.

What follows are sequences tested on ATP (assay: switch fluorescence ratio, 500 uM ATP over buffer (Cy3 cluster intensity, sum of 5 cycles each) (fold (ratio)); higher = stronger signal-on switching upon ATP binding; sequences stand for … in TCGTCGGCAGCGTCAGATGTGTATAAGAGACAGTTTTTTTTTTTTTTTTTTTTTTTTT…TC). Conditions: aptamer strand: ATP DNA aptamer (quencher-CACCTGGGGGAGTATTGCGGAGGAAGG + anchor), 100 nM annealed; ATP concentration: 500 uM.
Method in brief: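 Clusters carrying Cy3-labelled switching strands on a modified Illumina MiSeq flow-cell were annealed to 100 nM quencher-labelled ATP aptamer and imaged in selection buffer. They were imaged again after 15 min with 500 uM ATP at 22 °C, over five buffer/ATP cycles with NaOH stripping and re-annealing in between. For each cluster, the fluorescence ratio is the summed Cy3 intensity of the target cycles divided by that of the buffer cycles, averaged per switch-domain sequence. Clusters outside 100-1000 RFU were left out.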
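Further: ATP exposure 15 min at 22 °C before imaging.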

In order of falling switch fluorescence ratio:
1. CCATTAGCAT  2.12 ± 0.2
2. CACGGCAAGA  1.89 ± 0.087
3. TTTTCCCCTC  1.64 ± 1
4. TAAAAAACCT  1.57 ± 0.39
5. TTCTGGGGTG  1.46 ± 0.67
6. CGGCCCCCGT  1.4 ± 0.46
7. CCGCGTCGCT  1.317 ± 0.0055
8. TTACACGATA  1.32 ± 0.15
9. CTCAGCCAGT  1.29 ± 0.056
10. TTTTCGACGA  1.27 ± 0.3
11. TCCGGCGGGA  1.26 ± 0.32
12. TCGTCATTGC  1.22 ± 0.037
13. TATACGGAAT  1.16 ± 0.051
14. GATGGTGTGC  1.15 ± 0.29
15. GCAACCACCG  1.137 ± 0.0038
16. AACGGTAATT  1.1 ± 0.034
17. TCAGGGTGCT  1.1 ± 0.029
18. GGATGTAAGA  1.1 ± 0.18
19. CCTGGGGTAA  1.09 ± 0.039
20. ATGACTTACG  1.08 ± 0.02
21. ACTGTCATTA  1.08 ± 0.019
22. ACGGCATCAT  1.076 ± 0.0017
23. ACGACTTAGG  1.07 ± 0.017
24. CGTGGTGCTC  1.07 ± 0.043
25. ACTGATGACG  1.06 ± 0.078
26. CTGGTATATC  1.063 ± 0.0067
27. GAGAAAGTTC  1.06 ± 0.038
28. AATCAAACTA  1.05 ± 0.028
29. ATGGGCGGCC  1.0476 ± 0.00053
30. GTAAAAAGTG  1.05 ± 0.17
31. AAATCGCCTT  1.05 ± 0.02
32. TTAAAAGTTG  1.051 ± 0.0097
33. TGTTACTACG  1.0494 ± 0.00016
34. CAGGGTGGAC  1.04 ± 0.04
35. TTTGGAAAGC  1.04 ± 0.019
36. GTTGGCACTG  1.036 ± 0.0053
37. AGTAGGCCTA  1.04 ± 0.025
38. TAAAGGGGCT  1.04 ± 0.049
39. TGGGGTCGTC  1.038 ± 0.0087
40. CGGGAGTAGG  1.04 ± 0.041
41. CTTGGAGGGT  1.04 ± 0.086
42. TCGTTATTTT  1.04 ± 0.052
43. CAGGAGTGTA  1.03 ± 0.036
44. CCTTTAGATG  1.03 ± 0.04
45. GTTTAGGGGT  1.03 ± 0.081
46. GGGCGGCCTT  1.03 ± 0.068
47. TTTGGTAATT  1.03 ± 0.034
48. GCAAATGCGT  1.03 ± 0.059
49. CTGGGGCGCT  1.028 ± 0.0032
50. ATGTGTGGGA  1.029 ± 0.0019
51. TAGGGGAGGG  1.03 ± 0.041
52. GCCCGCTTCG  1.03 ± 0.024
53. CTGAAGAATT  1.03 ± 0.015
54. TACACTTGTA  1.03 ± 0.057
55. ATTTTTGGG  1.03 ± 0.035
56. TTCCGAAGGT  1.03 ± 0.03
57. ATGTTGATCC  1.03 ± 0.03
58. TGAGGGCGAT  1.033 ± 0.0019
59. AAGGGCTGCA  1.032 ± 0.0052
60. TTTATACGGC  1.03 ± 0.014
61. TTGGGCCCGT  1.02 ± 0.075
62. ACTATCGGCA  1.02 ± 0.029
63. TTTGAGCTTT  1.02 ± 0.018
64. TGAGGCTGGG  1.02 ± 0.054
65. AGACGGTATG  1.02 ± 0.0061
66. GGATACGGGC  1.02 ± 0.079
67. ACGGTTGTTT  1.0154 ± 0.00077
68. TCATGGTGAT  1.022 ± 0.0013
69. GGATTGGGGA  1.02 ± 0.031
70. ACGGGGTCT  1.02 ± 0.012
71. AATAGAACTT  1.02 ± 0.061
72. CTAGTTATGA  1.02 ± 0.016
73. TCAGGTTAGT  1.02 ± 0.022
74. GCTATAGACT  1.02 ± 0.067
75. GGTTTTTTAT  1.02 ± 0.019
76. ATGGGGGCTG  1.02 ± 0.047
77. TTAACAATCG  1.02 ± 0.02
78. CGGGTGTTCG  1.02 ± 0.075
79. GTTTAACTAT  1.015 ± 0.0038
80. CTAATAGTGC  1.016 ± 0.0021
81. CGGGTACTAG  1.02 ± 0.044
82. AATTTTAACT  1.022 ± 0.0064
83. CGGTGGGGAT  1.02 ± 0.046
84. CGGTCCACGA  1.022 ± 0.0017
85. ACCTTGATTG  1.01 ± 0.018
86. GGTGGTGGCC  1.01 ± 0.023
87. TATTGTTTTT  1.01 ± 0.022
88. CAGGGGGGTA  1.01 ± 0.016
89. GATGTAGGTG  1.007 ± 0.0071
90. GGAGACATGT  1.006 ± 0.0022
91. TTTATTGCTA  1.01 ± 0.034
92. TTGGAAGCAT  1.01 ± 0.036
93. AGGACTCTCA  1.01 ± 0.032
94. AAAGTGATTA  1.01 ± 0.022
95. ACTAATAAGA  1.01 ± 0.019
96. CGGGACATGA  1.01 ± 0.012
97. AGCGGCTCGC  1.007 ± 0.0047
98. GTTGGGGCTC  1.01 ± 0.04
99. CAATTCAGGA  1.01 ± 0.036
100. GTGAAAAAGA  1.005 ± 0.0075
101. GGGGAGGCCT  1.01 ± 0.031
102. AACTGAGTAG  1.01 ± 0.015
103. TGTTTTATG  1.007 ± 0.0086
104. CACGGATGGT  1.01 ± 0.069
105. GCGTGCAGGG  1.01 ± 0.025
106. TGAAAAGCGC  1.01 ± 0.024
107. GCTATTTTTC  1 ± 0.042
108. AGTTTTCCAT  1.0004 ± 0.00055
109. CATTTCAAGG  1 ± 0.043
110. TTATAGGTCT  1 ± 0.072
111. AGCTGGGTTT  1 ± 0.021
112. CTAATTGCGA  1 ± 0.016
113. CTTTTTAGGC  1 ± 0.043
114. AATATAAAGG  1 ± 0.031
115. TCCTCATGGT  1 ± 0.022
116. GAACGGGGGT  1 ± 0.015
117. TTTTTCTTCA  1 ± 0.011
118. TTCGGGATTA  1 ± 0.018
119. CGTTAAATAA  1.004 ± 0.0054
120. TGGAAGGAAG  0.9998 ± 0.0073
121. AGCTGGAACA  1 ± 0.018
122. AGGCAGACTT  1.004 ± 0.0089
123. GGAATCTAGT  0.999 ± 0.018
124. CGACTAAAAG  0.999 ± 0.042
125. GGCGGTAGTG  0.999 ± 0.025
126. CGGGCCTGAA  0.999 ± 0.041
127. GCTGATGTAT  0.999 ± 0.026
128. GGGGTGCGGT  0.998 ± 0.017
129. CATGGATGCC  0.998 ± 0.022
130. GGTAAATATT  0.9981 ± 0.0046
131. GTTTTGGTGG  0.998 ± 0.029
132. TATGGCCGTG  0.998 ± 0.061
133. TTGGGTAGCA  0.9968 ± 0.0098
134. GAGTAATTGT  0.9975 ± 0.0042
135. TCGGTTTATA  0.997 ± 0.01
136. TTCAAAATGT  0.997 ± 0.032
137. GGATTCGAAG  0.9953 ± 0.0071
138. TGGGGAAGGT  0.994 ± 0.022
139. AATAAGAAAT  0.994 ± 0.015
140. CATGTGTTTG  0.993 ± 0.014
141. GGTTCGTTGG  0.993 ± 0.013
142. ATATTGGGGC  0.993 ± 0.017
143. CTCTGTGTTT  0.9924 ± 0.00037
144. GGGCTTTAAT  0.992 ± 0.015
145. ATTAGTCCGA  0.9917 ± 0.0089
146. GTGTTTAGCT  0.992 ± 0.044
147. TTTTAAGAGT  0.992 ± 0.028
148. CAAAGTAGGG  0.991 ± 0.032
149. CCATTTCTTG  0.9906 ± 0.0095
150. AACATTTTTT  0.99 ± 0.019
151. GGATATGGGG  0.99 ± 0.012
152. GGTGAGGGCA  0.99 ± 0.015
153. GTTGTGATCT  0.989 ± 0.015
154. TAAATTTAGG  0.989 ± 0.02
155. ATCAATTGTT  0.989 ± 0.015
156. TAAAGGGTAT  0.988 ± 0.032
157. TGTGTGGGAC  0.988 ± 0.025
158. AAGAGTGGTG  0.988 ± 0.015
159. CATGGTTGCG  0.987 ± 0.022
160. GTGTTCGAGT  0.986 ± 0.034
161. TAATTAGGGA  0.986 ± 0.044
162. TTTTATATGG  0.986 ± 0.021
163. AAGGGGCTTC  0.985 ± 0.033
164. AAGGGCGAGC  0.985 ± 0.1
165. TATTCGGATT  0.984 ± 0.03
166. GGGGTGATCG  0.9842 ± 0.0077
167. TCGTGTATTG  0.984 ± 0.026
168. AGTTGATTGG  0.983 ± 0.027
169. AAATGGTGTA  0.983 ± 0.028
170. TGGTGGTGTG  0.983 ± 0.035
171. TTTTTGTCGT  0.983 ± 0.025
172. CTCGGCCGAG  0.982 ± 0.016
173. TTACTTGGCC  0.9818 ± 0.0021
174. GCTGTAAATT  0.982 ± 0.019
175. AAATAGGCA  0.981 ± 0.017
176. AGACTAGCCA  0.981 ± 0.081
177. GAGGGGCTGT  0.981 ± 0.038
178. TTTCGAGTTG  0.9809 ± 0.0029
179. TTATTTTAAC  0.981 ± 0.04
180. ATGGGCGAGC  0.981 ± 0.046
181. TATTGTTCGC  0.98 ± 0.046
182. GATACATGCT  0.979 ± 0.036
183. GCCTAATATG  0.9793 ± 0.0083
184. GAGGAAGTAT  0.978 ± 0.0024
185. GTTCTTTTTC  0.978 ± 0.019
186. GCAAGTGCAC  0.978 ± 0.04
187. GAGAAATTAT  0.9772 ± 0.0067
188. CTTGGTTACG  0.9738 ± 0.0093
189. TATATGATTA  0.973 ± 0.016
190. TTGATGCGGA  0.971 ± 0.05
191. TCCGGTGTG  0.97 ± 0.015
192. AGTTTTTGGG  0.97 ± 0.037
193. TTGGAAGTAG  0.9688 ± 0.0029
194. CTGGGACGTG  0.967 ± 0.028
195. GCGAGAACTA  0.967 ± 0.024
196. GGGTGGCCGT  0.961 ± 0.029
197. TTGCATGATG  0.9611 ± 0.0076
198. GGAATTTCTG  0.945 ± 0.014
199. ATGCTTAGGG  0.944 ± 0.02
200. GAGGGCCGTG  0.933 ± 0.043
